Source: PMC2693666 (PLoS ONE, 2009)

B1: recMoPrP(23–230) (natural protein)
chain: not shown
B2: recMoPrP(89–230) (domain or fragment)
chain: not shown
B3: recMoDpl(26–155) (domain or fragment, mouse, UniProt Q9QUG3 26-155, looked up)
chain: ARGIKHRFKWNRKVLPSSGGQITEARVAENRPGAFIKQGRKLDIDFGAEGNRYYAANYWQFPDGIYYEGCSEANVTKEMLVTSCVNATQAANQAEFSREKQDSKLHQRVLWRLIKEICSAKHCDFWLERG
notes: also called recDpl

What was measured:
Experiment in all cases: SPR; Biacore 2000, 20°C; […] (10 mM HEPES, 150 mM NaCl), pH 7.4, 20 µL/min; 1:1 (Langmuir) model
Conditions in all cases: both partners purified
recMoDpl(26–155) = molecular target: B3
recMoPrP(89–230) = molecular target: B2
recMoPrP(23–230) = molecular target: B1

Row | Binder | stoichiometry N (recMoDpl(26–155)) | Kd (recMoPrP(89–230)) [nM] | koff (recMoPrP(89–230)) [s⁻¹] | kon (recMoPrP(89–230)) [M⁻¹ s⁻¹] | Kd (recMoPrP(23–230)) [nM] | koff (recMoPrP(23–230)) [s⁻¹] | kon (recMoPrP(23–230)) [M⁻¹ s⁻¹]
1 | B1 | 1 | – | – | – | – | – | –
2 | B2 | 1 | – | – | – | – | – | –
3 | B3 | – | 100 | 0.00087 | 8400 | 11 | 0.0013 | 120000
